Patent US20230322857A1, “RECOMBINANTLY ENGINEERED POLYPEPTIDES CAPABLE OF RECYCLING NONCANONICAL COFACTORS” (The Regents of the University of California, priority 2022, published 2023)
Entries after “also recorded” stand apart in the source; their conditions may differ.

Legend:
[1] = Steady state kinetics of glutathione reductase (Gor) variants with NADPH; format: biochemical
Method: (§1) Expression and Purification of Gor Wild-type and Variants. E. coli Gor (EC 1.6.4.2) is a homo-dimeric flavoenzyme containing 450 amino acid residues with 1 FAD per subunit. To prevent interference from endogenous protein, Gor wild-type and variants were expressed using E. coli Δgor::kan strain containing pQElac based plasmids encoding for the Gor wild-type or variants. 1% (v/v) cells from an overnight culture were cultured in 2×YT media with 200 μg/mL ampicillin and 50 μg/mL kanamycin in shake flasks at 37° C. in a rotary shaker to an OD600 of 0.4-0.6. The cultures were then induced with 0.5 mM IPTG and incubated at 30° C. with shaking for 24 h. The cells were harvested with centrifugation and lysed by bead beating with Zymo His Binding Buffer (Zymo Research, CA, USA). Protein purification was performed with Zymo His-Spin Protein miniprep purification kit according to the manufacturer's instructions. The concentrations of purified protein were quantified by Coomassie dye—based assays (Bradford) using BSA (Bovine Serum Albumin) as standards.
Specific Activity and Steady State Kinetic Analyses for Gor Wild-type and Variants. The specific activity and kinetic parameters of Gor with the different cofactors, shown in FIG. 1, were measured using the following methods. For measuring the specific activity with NMNH, the 100 μL reaction mixture contained 96 mM potassium phosphate buffer pH 7.5, 2.5 mM GSSG and 0.8 mM NMNH. NMNH was generated using methods described in Black et al. (Nat. Chem. Biol. 16:87-94 (2020). Briefly, 4 mM NMN^+ was incubated in a solution containing 50 mM Tris-Cl at pH 8.5, 0.2 mM EDTA, 50 mM Na2HPO4, 5 mM D-glyceraldehyde-3-phosphate, and 28 μM of purified E. coli glyceraldehyde-3-phosphate dehydrogenase. The reaction was incubated at 30° C. for 8 h. The protein was removed by an Amicon Ultra 3 K filter, and the flow-through was dried under vacuum. […] The assay was started by addition of 10 μL of purified protein at appropriate concentration at 25° C. The kinetic parameters were measured by monitoring the NAD(P)H consumption at 340 nm in 96-well plate. Data was fit to the Michaelis-Menten equation to generate estimates of apparent catalytic efficiency (kcat/Km). The results are the average of three independent experiments.

[2] = Steady state kinetics of glutathione reductase (Gor) variants with NMNH; format: biochemical; conditions: for Km: enzyme could not be saturated, 96 mM Tris-Cl pH 7.5, 2.5 mM GSSG
Method: as §1
(§2) Specific Activity and Steady State Kinetic Analyses for Gor Wild-type and Variants. The specific activity and kinetic parameters of Gor with the different cofactors, shown in FIG. 1, were measured using the following methods. For measuring the specific activity with NMNH, the 100 μL reaction mixture contained 96 mM potassium phosphate buffer pH 7.5, 2.5 mM GSSG and 0.8 mM NMNH. NMNH was generated using methods described in Black et al. (Nat. Chem. Biol. 16:87-94 (2020). Briefly, 4 mM NMN^+ was incubated in a solution containing 50 mM Tris-Cl at pH 8.5, 0.2 mM EDTA, 50 mM Na2HPO4, 5 mM D-glyceraldehyde-3-phosphate, and 28 μM of purified E. coli glyceraldehyde-3-phosphate dehydrogenase. The reaction was incubated at 30° C. for 8 h. The protein was removed by an Amicon Ultra 3 K filter, and the flow-through was dried under vacuum. Assays investigating the steady-state kinetic parameters were completed with 100 μL reaction mixtures containing 96 mM Tris-Cl buffer pH 7.5, 2.5 mM GSSG and varied cofactor concentrations from 0.01 mM to 1.6 mM. The assay was started by addition of 10 μL of purified protein at appropriate concentration at 25° C. The kinetic parameters were measured by monitoring the NAD(P)H consumption at 340 nm in 96-well plate. Data was fit to the Michaelis-Menten equation to generate estimates of apparent catalytic efficiency (kcat/Km). The results are the average of three independent experiments.

[3] = Specific activity of Gor variants with NMNH; format: biochemical
Method: as §1
Specific Activity and Steady State Kinetic Analyses for Gor Wild-type and Variants. The specific activity and kinetic parameters of Gor with the different cofactors, shown in FIG. 1, were measured using the following methods. For measuring the specific activity with NMNH, the 100 μL reaction mixture contained 96 mM potassium phosphate buffer pH 7.5, 2.5 mM GSSG and 0.8 mM NMNH. […] The kinetic parameters were measured by monitoring the NAD(P)H consumption at 340 nm in 96-well plate. […]

[4] = Steady state kinetics of glutathione reductase (Gor) variants with NADH; format: biochemical; conditions: for Km: enzyme could not be saturated, 96 mM Tris-Cl pH 7.5, 2.5 mM GSSG
Method: as §1, §2

[5] = previously identified variant; cited from earlier work
E. coli SHuffle strain = assay: GDH-Gor coupled growth rescue in SHuffle strain; format: cell-based, Escherichia coli; conditions: 0.5 mM diamide, varying NMN^+ concentrations
Method: Culture conditions for GDH-Gor coupled growth rescue in SHuffle strain. The electro-competent cells of SHuffle harboring pLZ311 or pLZ312 were made as follows: The SHuffle cells were cultured in 200 mL SOB media with spectinomycin at 30° C. with shaking until OD600 reached 0.4-0.6. The culture was chilled on ice for 15 min and the cells were pelleted at 4° C., 4,000×g. Collected cells were washed with 10% glycerol in water (sterile, ice cold) and resuspended with 5 mL of 10% glycerol in water (sterile, ice cold), and stored as 50 μL aliquots at −80° C.
Glucose facilitator (encoded by glf) was used for uptake of unphosphorylated glucose into the cells. The co-transformation of Bs gdh and Zm glf was performed as follows: Thaw SHuffle/pLZ311 or SHuffle/pLZ312 electro-competent cells on ice, add 1 μL Bs gdh (pEK101 or pLZ210) and 1 μL Zm glf(pSM109) plasmid DNA to 50 μL competent cells, mix, and electroporate. Cells were recovered with 1 mL SOC at 37° C. with shaking for 1 h. The cells were added to 10 mL 2×YT with 10 g/L glucose, 0.5% arabinose, kanamycin, chloramphenicol, and ampicillin. After incubation at 37° C. with shaking for 10 h, 1 mL cells were washed 3 times and re-suspended in M9 buffer (1×BD Difco M9 Salts). Targeted dilutions after cells reached density of OD600 0.6 were prepared in M9 buffer and 5 μL aliquots were dispensed in series on an agar plate of M9 selection media containing 0.5 mM diamide, 1 g/L yeast extract, 10 g/L glucose, 0.5% arabinose, 0.5 mM IPTG, ampicillin, kanamycin, chloramphenicol and serial NMN concentrations of 0, 2, 4 and 6 mM. Selection plates were incubated at 37° C., and photos were taken to document growth progress.

[6] = 96 mM Tris-Cl buffer pH 7.5, 2.5 mM GSSG, varied cofactor concentrations, n = 3

B1: Gor I178T (protein, UniProt P06715 1-450, looked up, variant I178T)
Glutathione reductase: MTKHYDYIAIGGGSGGIASINRAAMYGQKCALIEAKELGGTCVNVGCVPKKVMWHAAQIREAIHMYGPDYGFDTTINKFNWETLIASRTAYIDRIHTSYENVLGKNNVDVIKGFARFVDAKTLEVNGETITADHILIATGGRPSHPDIPGVEYGIDSDGFFALPALPERVAVVGAGYTAVELAGVINGLGAKTHLFVRKHAPLRSFDPMISETLVEVMNAEGPQLHTNAIPKAVVKNTDGSLTLELEDGRSETVDCLIWAIGREPANDNINLEAAGVKTNEKGYIVVDKYQNTNIEGIYAVGDNTGAVELTPVAVAAGRRLSERLFNNKPDEHLDYSNIPTVVFSHPPIGTVGLTEPQAREQYGDDQVKVYKSSFTAMYTAVTTHRQPCRMKLVCVGSEEKIVGIHGIGFGMDEMLQGFAVALKMGATKKDFDNTVAIHPTAAEEFVTMR
Km [1, 6]: 40 ± 10 µM
NADPH kcat [1, 6]: 31 ± 1 s⁻¹
Km [2]: > 1500 µM
enhanced NMNH-dependent activity compared to the wild type ([3]; 0.8 mM NMNH, 2.5 mM GSSG, vs wild type Ec Gor): 4 fold
Km [4]: > 1500 µM

B2: R198M-R204L: previously identified Ec Gor variant with R198M-R204L double mutations (protein, UniProt P06715 1-450, looked up, variant R198M R204L)
Glutathione reductase: MTKHYDYIAIGGGSGGIASINRAAMYGQKCALIEAKELGGTCVNVGCVPKKVMWHAAQIREAIHMYGPDYGFDTTINKFNWETLIASRTAYIDRIHTSYENVLGKNNVDVIKGFARFVDAKTLEVNGETITADHILIATGGRPSHPDIPGVEYGIDSDGFFALPALPERVAVVGAGYIAVELAGVINGLGAKTHLFVMKHAPLLSFDPMISETLVEVMNAEGPQLHTNAIPKAVVKNTDGSLTLELEDGRSETVDCLIWAIGREPANDNINLEAAGVKTNEKGYIVVDKYQNTNIEGIYAVGDNTGAVELTPVAVAAGRRLSERLFNNKPDEHLDYSNIPTVVFSHPPIGTVGLTEPQAREQYGDDQVKVYKSSFTAMYTAVTTHRQPCRMKLVCVGSEEKIVGIHGIGFGMDEMLQGFAVALKMGATKKDFDNTVAIHPTAAEEFVTMR
NADPH-dependent activity [5]: almost completely abolished

B3: G174H: Ec Gor single-mutation variant predicted to make salt bridge with the NMNH phosphate group (protein, UniProt P06715 1-450, looked up, variant G174H)
Glutathione reductase: MTKHYDYIAIGGGSGGIASINRAAMYGQKCALIEAKELGGTCVNVGCVPKKVMWHAAQIREAIHMYGPDYGFDTTINKFNWETLIASRTAYIDRIHTSYENVLGKNNVDVIKGFARFVDAKTLEVNGETITADHILIATGGRPSHPDIPGVEYGIDSDGFFALPALPERVAVVHAGYIAVELAGVINGLGAKTHLFVRKHAPLRSFDPMISETLVEVMNAEGPQLHTNAIPKAVVKNTDGSLTLELEDGRSETVDCLIWAIGREPANDNINLEAAGVKTNEKGYIVVDKYQNTNIEGIYAVGDNTGAVELTPVAVAAGRRLSERLFNNKPDEHLDYSNIPTVVFSHPPIGTVGLTEPQAREQYGDDQVKVYKSSFTAMYTAVTTHRQPCRMKLVCVGSEEKIVGIHGIGFGMDEMLQGFAVALKMGATKKDFDNTVAIHPTAAEEFVTMR
NMNH-dependent activity (in words) compared to the wild type ([3]; vs wild type Ec Gor): enhanced NMNH-dependent activity

B4: Gor Ortho: recombinantly engineered E. coli glutathione reductase with I178T, R198M, R204L (SEQ ID NO:8), NMNH-specific (protein)
chain: MTKHYDYIAIGGGSGGIASINRAAMYGQKCALIEAKELGGTCVNVGCVPKKVMWHAAQIREAIHMYGPDYGFDTTINKFNWETLIASRTAYIDRIHTSYENVLGKNNVDVIKGFARFVDAKTLEVNGETITADHILIATGGRPSHPDIPGVEYGIDSDGFFALPALPERVAVVGAGYTAVELAGVINGLGAKTHLFVMKHAPLLSFDPMISETLVEVMNAEGPQLHTNAIPKAVVKNTDGSLTLELEDGRSETVDCLIWAIGREPANDNINLEAAGVKTNEKGYIVVDKYQNTNIEGIYAVGDNTGAVELTPVAVAAGRRLSERLFNNKPDEHLDYSNIPTVVFSHPPIGTVGLTEPQAREQYGDDQVKVYKSSFTAMYTAVTTHRQPCRMKLVCVGSEEKIVGIHGIGFGMDEMLQGFAVALKMGATKKDFDNTVAIHPTAAEEFVTMR
saturation of activity with natural cofactors ([1]; concentrations up to 4 mM NAD(P)H): could not be saturated
Km ([1]; enzyme could not be saturated, 96 mM Tris-Cl pH 7.5, 2.5 mM GSSG): > 1500 µM
reduction of catalytic efficiency for NADPH compared to Ec Gor wild type ([1]; vs Ec Gor wild type): ~15,000 fold
reduction of catalytic efficiency for NADPH compared to I178T single mutant ([1]; vs I178T single mutant): ~9,000 fold
growth of SHuffle strain harboring the Gor variant (E. coli SHuffle strain): supporting growth only with NMN^+ cycling; also recorded: only grows with NMNH regeneration
cofactor specificity switch from native cofactor NADPH to NMNH ([2]; based on catalytic efficiency measured in vitro): 60,000 fold
Km [2]: > 1500 µM
catalytic efficiency (kcat/Km) for NMNH, fold higher than the wild type ([2]; vs Ec Gor wild type): ~4 fold
change in NMNH-dependent activity on adding R198M-R204L to Ec Gor I178T ([3]; vs Ec Gor I178T): only a modest decrease
Km [4]: > 1500 µM
decrease of catalytic efficiency for NADH by the additional R198M-R204L mutations ([4]; vs I178T): ~2 fold

B5: Gor: wild type glutathione reductase from Escherichia coli (SEQ ID NO:7) (protein, listed as Escherichia coli)
chain: MTKHYDYIAIGGGSGGIASINRAAMYGQKCALIEAKELGGTCVNVGCVPKKVMWHAAQIREAIHMYGPDYGFDTTINKFNWETLIASRTAYIDRIHTSYENVLGKNNVDVIKGFARFVDAKTLEVNGETITADHILIATGGRPSHPDIPGVEYGIDSDGFFALPALPERVAVVGAGYIAVELAGVINGLGAKTHLFVRKHAPLRSFDPMISETLVEVMNAEGPQLHTNAIPKAVVKNTDGSLTLELEDGRSETVDCLIWAIGREPANDNINLEAAGVKTNEKGYIVVDKYQNTNIEGIYAVGDNTGAVELTPVAVAAGRRLSERLFNNKPDEHLDYSNIPTVVFSHPPIGTVGLTEPQAREQYGDDQVKVYKSSFTAMYTAVTTHRQPCRMKLVCVGSEEKIVGIHGIGFGMDEMLQGFAVALKMGATKKDFDNTVAIHPTAAEEFVTMR
Km [1, 6]: 60 ± 10 µM
NADPH kcat [1, 6]: 84 ± 7 s⁻¹
growth of SHuffle strain harboring the Gor variant (E. coli SHuffle strain; listed as wild type Ec Gor): robust growth independent of NMN^+ supplementation
growth of SHuffle strain harboring the Gor variant (E. coli SHuffle strain; listed as wild type Gor): no growth defects
Km [2]: > 1500 µM
Km [4]: > 1500 µM
